1 molecule from PMC8501605 can be followed below.

The assay has as its target T1, pseudokinase mixed lineage kinase domain-like (MLKL) (human (endogenous in post-mortem hippocampus)), Q8NB16.
T1 chain: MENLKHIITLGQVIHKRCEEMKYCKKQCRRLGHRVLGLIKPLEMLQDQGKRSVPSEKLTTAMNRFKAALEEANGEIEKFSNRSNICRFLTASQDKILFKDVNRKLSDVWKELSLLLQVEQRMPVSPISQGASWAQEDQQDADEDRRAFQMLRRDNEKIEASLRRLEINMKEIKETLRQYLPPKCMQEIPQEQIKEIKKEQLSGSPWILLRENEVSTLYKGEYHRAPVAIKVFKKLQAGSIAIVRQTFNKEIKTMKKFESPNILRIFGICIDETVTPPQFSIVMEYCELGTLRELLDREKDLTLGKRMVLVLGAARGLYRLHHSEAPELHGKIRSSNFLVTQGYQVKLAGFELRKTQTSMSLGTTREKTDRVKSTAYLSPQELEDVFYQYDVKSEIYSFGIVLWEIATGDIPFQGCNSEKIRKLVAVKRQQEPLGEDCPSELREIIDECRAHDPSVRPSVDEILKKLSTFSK
As to the kind of experiment: non-reducing gel and western blot; hippocampal grey matter extracted in native conditions (TBS, 0.1% Triton X-100), run on 7.5% gel in non-reducing conditions, blot for MLKL; AD (n = 14) and control (n = 8) cases. Particulars: remark: other sources report otherwise. (In general: A western blot detects proteins with antibodies after separation by electrophoresis.)

B1: pseudokinase mixed lineage kinase domain-like (MLKL), Q8NB16 1-471 (natural protein)
chain: T1 chain
As usually defined, the stoichiometry N is a count of units in the complex or per binding partner. In the case of B1, the stoichiometry N came out at 4.
